The data set deals with the molecule itself. Description: non-dissociating Western blot (WB-ND); lysates of vaccinia-infected BSC-1 cells (18 hpi) mixed with 2x non-dissociating sample buffer (62.5 mM Tris-HCl pH 6.8, 0.8% SDS, 20% glycerol), 30 min on ice, not boiled; 12% SDS-PAGE in a cold room; blot with anti-NSP3 rat serum; stable dimer band (68 kDa) told apart from monomer/dimerization intermediate band (34 kDa); cells with MG132 or DMSO, in one experiment with …. In general terms: In western blotting, separated proteins are transferred to a membrane and probed.

Numbering of substitutions follows the chain as printed. In names and notes the source's numbering stands.

B1: wild type NSP3 (non-structural protein 3) of simian species A rotavirus strain RRV (natural protein)
chain: MESTQQMASSIINSSFEAAVVAATSTLELMGIQYDYNEVYTRVKSKFDLVMDDSGVKNNLIGKAITIDQALNGKFSSAIRNRNWMTDSRTVAKLDEDVNKLRIMLSSKGIDQKMRVLNACFSVKRIPGKSSSIVKCTRLMKDKLERGEVEVDDSFVEEKMEVDTIDWKSRYEQLEKRFESLKHRVNEKYNHWVLKARKVNENMNSLQNVISQQQAHINELQMYNNKLERDLQSKIGSVVSSIEWYLRSMELSDDVKSDIEQQLNSIDQLNPVNAIDDFESILRNLISDYDRLFIMFKGLLQQCNYTYTYE
notes: also called wtNSP3; RRV NSP3
For B1, the “stoichiometry N” value came out at 2.

B2: NSP3 W170A of rotavirus strain RRV (natural protein)
chain: B1 chain with W167A
notes: also called vNSP3_(W170A)
Turning to B2, the “fold lower accumulation of stable dimers than NSP3_(Y192A)” value is 16 fold and the “fold lower accumulation of stable dimers than wtNSP3” value amounted to 9 fold.

As usually defined, the stoichiometry N is the number of molecules, sites or subunits per partner or assembly.

The values above are taken from publication PMC5524322, “Species A rotavirus NSP3 acquires its translation inhibitory function prior to stable dimer formation” (PLoS ONE, 2017).
